Patent publication US6903183B1, “Compositions and methods for regulation of steroidogenesis” (Texas Tech University Health Services Center, priority 1996, dated 2005)

Assays:
[1] = target: T1, StAR (Mus musculus, UniProt P51557); test: Cholesterol binding to StAR (filtration radioassays, native PAGE)
T1 construct: made in house; host or cells: three sources: dbcAMP-stimulated MA-10 cells (endogenous); COS 1 cells transfected with StAR cDNA; E. coli with pKK233-2/StAR
T1 sequence (P51557 63-284): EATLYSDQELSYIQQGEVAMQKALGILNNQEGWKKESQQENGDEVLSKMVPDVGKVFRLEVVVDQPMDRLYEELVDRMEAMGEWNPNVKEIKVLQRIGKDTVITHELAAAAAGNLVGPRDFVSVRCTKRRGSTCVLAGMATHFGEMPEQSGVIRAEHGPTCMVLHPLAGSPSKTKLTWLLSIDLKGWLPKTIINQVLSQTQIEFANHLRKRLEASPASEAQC
Description: For these studies StAR proteins were obtained from three sources; (1) MA-10 cells stimulated with dbAMP; (2) monkey kidney cells (COS 1) transfected with StAR cDNA; and (3) expression of a recombinant pKK233-2/StAR plasmid in E. coli. Filtration radioassays and Steady-State (native) polyacrylamide gel electrophoresis were used to detect cholesterol binding to StAR. […] Thus, this study has provided evidence that cholesterol can bind to the StAR protein with high affinity.

[2] = target: T1, StAR; test: Fluorescent sterol binding assay
[3] = tested on: mitochondria isolated from MA-10 mouse Leydig tumor cells; test: In vitro reconstituted system: pregnenolone synthesis by isolated mitochondria; type: biochemical; details: protein added to isolated mitochondria
Description: Rat heart mitochondria were used for the import assay with bovine StAR, indicating import of StAR is not dependent upon factors specific to mitochondria isolated from steroidogenic tissues. The ability of StAR to increase steroid production has also been confirmed in an in vitro reconstituted system.

[4] = tested on: MA-10 cells; test: Progesterone production in MA-10 cells transfected with the 30 kDa cDNA (radioimmunoassay); type: cell-based, mouse
Description: Expression of the 30-kD Protein in MA-10 Cells and COS I Cells. The full length SalI-NotI 1456 base pair 30-kDa cDNA was subcloned into the eukaryotic expression vector, pCMV (Anderson, et al., 1989). MA-10 cells were transfected with DNA by a lipsome-mediated uptake using the LipofectAMINE reagent (Life Technologies, Inc. Gathersburg, Md.) (Hawley-Nelson, et al., 1993). Plasmid DNA used in transfection experiments were purified by CsCl density gradient followed by polyethylene glycol precipitation. The DNA was mixed with {fraction (1/10 )} the final volume of Waymouth's media minus serum and minus antibiotics (WAY^−) and added to an equal volume of WAY^− media containing the LipofectAMINE reagent. The DNA/lipid solution was gently mixed and incubated for 30 min at room temperature, then WAY^− media was added to achieve the final concentration of the DNA and LipofectAMINE reagent of 5 μg/ml and 20 μg/ml respectively. The cells were washed once with WAY^− media, incubated with transfection mix for 6 h, washed once with PBS, then incubated with Waymouth's plus 15% horse serum. The same procedure was used for transfection of COS 1 cells except Dulbecco's modified Eagle's media minus serum and antibiotics was used for the transfection media. For isolation of mitochondria for immunoblot analysis, cells were grown on 100-mm dishes. For progesterone production assays, MA-10 cells were plated into 96 well plates at 75,000 cells/well the day before the experiment. Typically, 8 wells each were transfected with either pCMV or pCMV+30-kDa cDNA for one experiment set.
Radioimmunoassay. 48 hours post-transfection, the growth medium was replaced with Waymouth's minus horse serum. After 6 h at 37° C. 5% CO2, progesterone was measured directly in the media by radioimmunoassay as previously described (Resko, et al., 1974). The progesterone antibody was obtained from Holly Hill Biologicals (Hillsboro, Oreg.).
MA-10 cells were transfected with the 30 kDa cDNA and progesterone production was measured as follows. The full-length cDNA was subcloned into the pCMW eukaryotic expression vector and transfected into MA-10 cells using LipofectAMINE (Life Technologies, Inc.). Cells (75,000 per well) were plated in a 96 well plate the day before transfection. The cells were incubated with the DNA/lipid transfection mixture for 6 hours, washed one time with PBS, and the incubated in Waymouths+15% horse serum. […] After 6 h, the medium was removed and progesterone was measured by radioimmunoassay. The cells were lysed directly in the wells with 0.1% SDS and protein was determined by the method of Bradford (1976). […] The transfected cells were not treated with hormone and progesterone was measured directly in the media after a 6 h incubation.

[5] = tested on: COS 1 cells; details: expressed in COS1 cells (Lin et al., 1995); cited from earlier work
[6] = tested on: COS 1 cells; test: Steroid production in COS 1 cells expressing StAR; type: cell-based, monkey; details: transient transfection of COS 1 cells, absence of hormone stimulation
Description: Testicular tissue of two patients and genome DNA of a third patient with LCAH have mutations in the gene for StAR (Lin et al., Science, 267:1828-1831, 1995) (incorporated herein by reference). […] These truncations were confirmed by Western analysis following expression of the mutated cDNAs in COS cells. Virtually none of the precursor form of StAR expressed from the cDNA of these patients was converted to the mature mitochondrial form.
Also, increases in StAR mRNA and protein closely paralleled steroid production indicating a temporal relationship in these parameters.

CC(C)CCC[C@@H](C)[C@H]1CC[C@H]2[C@@H]3CC=C4C[C@@H](O)CC[C@]4(C)[C@H]3CC[C@]12C [cholesterol]
specific binding to StAR [1]: 20-40 % of the total binding

C[C@H](CNc1ccc([N+](=O)[O-])c2nonc12)[C@H]1CC[C@H]2[C@@H]3CC=C4C[C@@H](O)CC[C@]4(C)[C@H]3CC[C@]12C [NBD-cholesterol]
affinity of binding to StAR [2]: nanomolar range

B1: StAR: LH-inducible mitochondrial 37 kDa precursor / 30 kDa mature protein, SEQ ID NO:2 (mouse) or 18 (human) (protein)
chain: MGQVRRRSSLLGSQLEATLYSDQELSYIQQGEVAMQKALGILNNQEGWKKESQQENGDEVLSKMVPDVGKVFRLEVVVDQPMDRLYEELVDRMEAMGEWNPNVKEIKVLQRIGKDTVITHELAAAAAGNLVGPRDFVSVRCTKRRGSTCVLAGMATHFGEMPEQSGVIRAEHGPTCMVLHPLAGSPSKTKLTWLLSIDLKGWLPKTIINQVLSQTQIEFANHLRKRLEASPASEAQC
pregnenolone synthesis [3]: time- and dose-dependent increase
average rate of progesterone produced ([4]; MA-10 cells expressing the 30 kDa protein): 166 pg progesterone produced per mg protein per hour
increase in progesterone production above cells transfected with vector alone ([4]; MA-10 cells, absence of hormone stimulation): 1.5-3.5
increase in steroidogenesis ([4]; expression of 30 kDa protein in MA-10 cells versus pCMV vector alone): 1.5 to 3.7 fold
constitutive steroid production versus basal parental MA-10 cells ([4]; stable transfected MA-10 cell lines constitutively synthesizing the 30 kDa protein): about 9 x
increase in steroid production [5]: 8 fold
steroid production [6]: several fold increase
